The record followed here is article PMC7610489.

The target in this experiment is P4-FAM, N-terminally fluorescein-labelled P4 peptide (Streptococcus cristatus). In words: MST.

For “RagAB complex purified from wild-type P. gingivalis W83, 8xHis-tag on the C terminus of RagB”, the Kd came to 2000 nM. “RagAB from P. gingivalis ATCC 33277 (complex)” returned a Kd of 200 nM.

Broadly, the Kd is the free concentration of one partner at which half of the binding sites on the other are occupied at equilibrium, for simple one-to-one binding. A low value points to tighter binding.
